In the domain aggregation screens of Martell et al. (2025):

Experiment: soluble fraction after stress (log2 fold change); higher = more stays soluble; pooled small domains, quantitative proteomics
Settings: stress: 50 degC
Procedure, shortened: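 Pooled custom libraries of small protein domains were measured in a high-throughput format, with quantitative proteomics as the read-out. Each library was stressed at 50°C. Aggregation propensity is given as the base-two logarithm of the fold change in how much of each protein stays soluble after the stress. Higher values mean a larger share of the protein remains in solution.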

Sequence	soluble fraction (log2)
HMEAVIENAAIIKQNSGGYAVRATVNGVDLGMKPVERATALLYFSLTDKLEKDRLLSHTLQKTYGDLSA	-0.254
HMVREVSYDQFLHFVEAKQVGMVYQDGESLMFTLKEDVEKEWGVTAYKTGLWPDANLTDRLLDAGVVFS	-0.715
HMIKISDYLSEEDLNFIKEMEKIYPYFDFDSEGNLILTKSIDELKDKYGFDEAFVSRLDTVLNSR	0.0178
HMGTPKMPLSLYLSMVENLRSLKRFALVNQQVKDGFVFFNDVAGIKRLQELLNYHNTGEKPSE	-1.39
HMKDEGSLKVIGQMVVIGIPQSEAKRFANTYTVAQIRAALQYTQKRSEDKNASKLENVAAYFRQALVRNWG	-1.36
HMSLSASELDQLRMMTKVSHMYHTRGMVQIDIARSLGLSQARVSRLLSAAEDANIVRTVVVA	-0.306
HMGESEKTLELVSQKDALVDEAFFFVRFQALLESNKTKGAQDLLDQSNHLSAAKLLQANAYLDIV	0.119
HMLNLNEAEKSIYVLIKKNESNNLNKVKEDSNLSNKAWDKGIKNLVKNNLVKVVKSNEGLFIQLV	-0.345
HMDVLDVADNVNDDMSFADAFAAARSEVGAGGIFYWHGKAYGTYYENEWAGMSEEDKADYWDAVARTTS	-0.18
HMLDTELEANLRSQRDQKLVEELDPIVTNPLRWAELTSDKQTEWTQYRTDLLNVPQQSGFPTNVTWPEKP	0.212
HMTSNKTVPYSELKGLISTGKIEYVGIGNTQIRAVSKSGAGIVTYTARRVIPDDTLIPELEKNGIAYGGI	-0.108
HMEMKVIPFNQMTRDQFDQLDRFLGRLAAAQAMGSLRLTKAQQNYFLNQVKQLDLYRKRILN	-0.787
HMEEMTIRQKRTMIFFIEATKHILQEDGYDHLTIREIAQRAGYNAATLYHYFRDLDELIIYGSVG	-0.238
HMNATPDMERYWASSAAEGRALEPLYAVSRGDGGEPLWWSPSRAQAERMAREEGGPLTVDRIDPP	-0.0411
HMVQDDDPNSVAKFIDQVIESNPEQVEQYRSGKEKVFNFFLGQTMRLSKGKANPDLVSELLKEKLS	0.0395
HMETSLVIQIDGAVNSPGIYQVTPGTRIFEALELAGGVREDAQTEALNLALPVYDGQRISIPSSFA	0.0796
HMNPGNTESFPVYQKRLGEIIQTLAGKKGQDINSPEVKELVGEYDFLTKQMFQLPDATSMVMEIATAYRN	0.0462
HMTDLQNDIQAFNLKKMSYQHETKKLEEKRNPEKLEKLEQDIQALYLRIMENPNMRAFDSAKQALYLQIM	-0.773
HMRKEEFIRELVLELKQNVSEQVILEQKRFYEEYILTEVRGGKTEEEVIASLSEPRLLAKSIIDAAEAGGD	-0.155
HMTPSTVQVHVAGAVKNPGVYVLLENARNIDAITAAGGATSEADLERINLSEFIRDGQRVYVPYKGDPI	0.269
HMADLKVGFVHRAGSVLERELDDVLEALEMYRSALAIDPSHKPSLDALTRISQLADYREQAAEILEPLPR	-0.576
HMRILDFPALKTEFDQLTKDLMAKYPEDGADRVRAIIETVLGPGKKVGALQPHQAELLAEVNTSLKANL	0.153
HMAEPLMTQIVEIEYADAEGLRENLEQFLTRLDEKTLLGSVLVDRHTNSLIIQAVRSDLERMLPLIETLDR	-0.731
HMGSFTDKQIKQAFGVLNDPRFKQGNYDGAVAVINKIAPGLADHPSVANALKRANEATQDIAQQTQA	0.161
HMKTVPNVEGEKDGTAQSAIESAGLKVGKVTYQYDDNTSKGLVISQSVKGGEKVKPNTAIDLVVSNGPK	0.0173

Sequence	soluble fraction (log2)
HMAPDNDELEKAKKIVNAFIEAKAKGLGVVSLGTKMIDAPVVKRAQKIIDQTIVMGKLSLNWQDEFFN	-0.0351
HMPASVEYIRLAAEQMTGQQVTIIEQPGNYAFILRIHLNDIYSLDLAALRARIDELKPAHLTYTVEQYD	-2.71
HMAQSLAQKINNYILTNRSSIANVAKSIGYSRTTVSRYLAGKYDSDPTDLENKLAEFLAHETGE	0.076
HMAVELPLETTLDIVRKYARNQEVDRRAERVEAVSAEALQTLAPRGTKLASEIVEQAKTQVLEELA	0.177
HMTIQNSILDEIPNIGASRKRAILEAFGSVHRLRKASPEMISAKVEGIGPEMAQAIHDYLVKHPAT	0.19
HMDVQEILGALSPDEKAAIGQLTSGEKHIDQIIAATRLPAARITSALTLLQIKGYVRALPGKRFSLTEKQ	-0.0961
HMNRQTGTVKWFNDAKGFGFITPESGPDLFVHFRSIQGAGFKSLQEGQRVTFVAVQGQKGMQADQVQA	-0.762
HMGYDSYDADTIPKLKIGSIVEHPKFGEGSIISKAGAEVTIAFKIKGVKKINLEYTSIKVLK	-0.935
HMETPLSAADFKIVFGEEYEIGTDANGLPKMGSRINRQLQNRFLTWASVNKRKATMSAYQDWVASDPAAQ	-0.336
HMYLSNPTYRGDSLVDALTQIGVDASFASRRDLARKNGIENYTGSAKQNLELLQLLREGRLR	0.374
HMTKQIILVHVAGKVKKPDVYPLLQGSRVADAIKAAGGAKKGVELNDINLARVLIDGEQVFVGYVPE	-1.58
HMKNNYQYIVDQIKQLILDGELIVGDRLPSERDLSEMYQVSRASVREALKALETIGLLESRHGGGNYIVNH	-0.671
HMESVDRIYERVRRYADDVGTAKIPMKELDDDGPLGTAVSRIRERRKRGELTEEWEARFETLPGWTWAA	0.0038
HMTTMTTGQRIAAKRKEQGLSQENLGEQLGVSRQAIYKWESDASLPDIDKLIALSRLFGVSTDYLLLE	-0.41
HMLNAPFGFRIEDDTLIPIPEEAKVVRQIFRYYLQGMGFGKIAQELNGQDVPGKPWGKERIKYILSNEKYI	-2.09
HMGNIIITPNPASDFIKIISNSPIIKFGFYDIYGNTINKKFNDNSINISDLPVGMYLINLNERYFKLLK	-0.0951
HMSVDDVALRLEFGPSDAEALAFVHRHGAILSETTDRDTGVVSVHVRLSEADAGRFNQRYGV	-0.183
HMDETELLLQKAIATLPDKQRVVFNLKYFDEMKYEEMSELLETSVGALKASYHLAVKKIEQFFHDA	-0.643
HMNMNDIKFGKYLKRVRKKYNFSKEYVANILKVKESLVSDWESGRLTLNDEYMEKLSLFYGVNLYKK	-0.863
HMQENKVLEGKVLEKKKKKVFVDLSPFGVGVIRGVNYLEAKNELKDIEEGDNIKVRVLEIDNENGFIELAL	0.271
HMTVGEKIQKYRKDLDLSQEELGQKLLVSRQTISLWEKDQTVPTIDNLIRLREIFGVSVDEILGF	-0.409
HMDGISANAVKALIESLIAGEDKRKPLSDQAMSDRLALQGIVLARRTVAKYREELNFPPAHQRKQK	-0.572
HMEATVGSRVRLARIGLTLTQKQLAQAVGVSANHLAMVERGSKHASEDLLQRIATATHTTYEWLMGTSEHQ	-0.845
HMGSTATVIASRLNMRASASTTGALLTKIPNGATVTVLGTTGAWSHIRYGSYTGYVMSQYLRING	-0.203
HMISKAQLFSEEELTELYRATGYQLENDPEIHREQFEALQAVRAKIEYAVPDVQEKLEQEQNLGQQ	0.295

Sequence	soluble fraction (log2)
HMPVYEEEVPAALDGQRLDRVVAMVTGLSRSEVGALLAAGAVTVDGTTPAKGSVRLAAGSIVSVTVS	-0.145
HMSSAYLTVRGIDIDVIYKDIKNLHIAVYPPFGRVRVAAPSHLDDDQVRLAVIQRLTWIKRQRERLRST	-1.41
HMKERLLDPYKDFIVNYLQKYPYTPAAVMHDKLKESYPDFPKVDPKTIYNFVMLLRRDFNIPKV	-0.306
HMENEIPVPELVGMSEADAAAKLASLGLERDTQREATADEESVGKVLRQEPTPGEYVDEGHKVTIWVGE	-0.0704
HMKSDEGEIKKIVEEIISKNASVVEDYKKGKEVALQFLVGQGMKATKGSANPELLKKIILENI	0.506
HMSPDTREAILAAARTAFARDGYQTSLRGIARDAGVDPALVHHYFPDRATLFAKAVIESTAG	-0.00189
HMVSAMLLHKKEILNLLAEEPEALHFASLLRAFGGRHIKNELKQIVDDLVRSGEILRLRGNRYTLPGADN	-1.21
HMNSKKRQAILESLRSVTDHPTAEMIYNRLKPEYPDLSLGTVYRNLAMFLEEGQVISVGTVDGQERYDAR	-0.306
HMKKISAKQQQILDYISSYSLEHGYPPSVREIGAEMGLRSPSTVHAHLKKLQEAGYLEPNEHKSRALTP	0.128
HMTPDVAEFRERLRQILPGEQIEVRTANDGIVLSGTVSSIARLDAALQLAERYAPSRVSNLMSVG	0.19
HMIPEKEISYMMPDGFMPKELKIIHITESGRKQIYSAAHKPLDLVNVKAPFVPNTKVQIYINDVPIEELKI	-0.418
HMQVVVEKSKEKVIISGNQYYIHIVKKGETAFSIAKAYGITVDELVKNNPSAATVLKEGQALRIPVVE	0.119
HMEALPSNLRRLRLEAQLTLDRLGALSGVSRAMISKIERGASVPTATMLGKLAAALQVSLSQLL	-0.97
HMRTLKDSTEYLIRSMLLRGEMKVGEIYSANALAKELNISNSPVREAMMSLVDRGLLENVRNRGFRVV	-1.44
HMYDFGVILQKLRKEKGFTQEQLARLIHKESSIISRYEKGLQNPTFETVKEFAAIFNVSMDYLAG	-1.25
HMANTVVMPNLLGKTMTEAKIELKELGIDITLKGSESSSKYSAGQIMEQNIAEGTKVEVGSSVEVTIAGS	-0.306
HMKARLRRVFQIYYGDAYSIMKALKETFPLQTIVHEPRTNSIVVDTPDEETATKIGDVVSAL	-0.392
HMDLPDFTSRERDILARVVQGDSNERIAASLGVSVSTVKTHIGNILRKTGQTNRVRLIVWATRHL	-1.72
HMSSGLLTVQEQRILEHLANGERNGDIAGRLHISEGTVKWHLHNMYRKLDAATRTQAVARARALRL	-0.109
HMPLRPNQRQFIHLMVYQGLDRNEAYAQANNKVLTEENYESIRTAAAKTFYTPHVNNYYHALMEEIRDRE	-0.299
HMEQTIKKYVNVATLNFRSGPSTSYSIISTLSKGTKVEVISTTNNWSKIIYDGKIGYVSSEYLSKSI	-2.1
HMTSEVLTNATIVKMVKAKLSDDIIIDEINNARVNFDVSPEGIKSLTAQNVTEPVIETMKKAVAAQESI	0.479
HMSLPALALRQADSLAFKQVIYHDRVVPFNTLARDFVLKLTGKPSYGGMTPEQVVGGWLLRPEVWQNEPM	-0.0387
HMIMNLNVLANNVRRLRTAQRLSQSALASKAGLSVPAIKNLENARNEPRVNTVQVIAHALEVRLQDLFAPT	-1.62
HMLPISGDDRDALDMAALILKQYDSLPILKEFANVVTKLQTVLDGVVSNSIEARRQMIQFEE	-0.0336
